B1: Pistol ribozyme (parent)
chain: GGGUCGUUGUUCCAUAAUCGCGUGGAUAUGGCACGCAAGUUUCUACCGGGCACCGUAAAUGUCCGACUGGAGCCGUUCGGGCGGCUAUAAACAGACCUCAGGCCCGAAGCGUGGCGGCACCUGCCGCCGGUGGUAAAAAAGAUCGGAAGAGCACACGUCU

In this series the parent is B1. The series can be described thus: aptazyme ON/OFF ratio, guanine; higher = stronger switching; co-transcriptional cleavage with and without guanine.
Consider U7C G9A U10G U11C C13U, for which the “aptazyme ON/OFF ratio” value was determined as 1.06. Then U7C G9A U10G U11C C13G, with 1.03; and U7C G9A U10G U11C C13A, with 1.24; and U7C G9C C12G, with 1.04. Then U7C G9C C12U, with 1.03. For the variant U7C G9C C12A, the “aptazyme ON/OFF ratio” value is 1.03. Then U7C G9A U10G U11G C12G C13G, with 1.05; and U7C G9A U10G U11G C12G C13U, with 1.07; and U7C G9A U10G U11G C12G C13A, with 1.07. Regarding U7C G9A U11A C12A C13A, the “aptazyme ON/OFF ratio” value worked out at 1.24. Then U7C G9A U11A C12A C13U, with 1.21; and U7C G9A U11A C12A C13G, with 1.12. For U7C G9A U11C the value was 1.05; for U7C G9A U11G, 1.37. For U7C G9A U11A the value was 1.33; for U7C G9C U10A U11G C12U, 1.05; for U7C G9C U10A U11G C12A, 1.11. For the variant U7C G9C U10A U11G C12G, the “aptazyme ON/OFF ratio” value turned out to be 1.29. As for U7C G9A U10G U11G C12A C13U, the “aptazyme ON/OFF ratio” value was found to be 1.13. Then U7C G9A U10G U11G C12A C13G, with 1.09; and U7C G9A U10G U11G C12A C13A, with 1.17; and U7C G9C U10C U11C C13U, with 1.01. For U7C G9C U10C U11C C13G the value was 1.04; for U7C G9C U10C U11C C13A, 1.02; for U7C G9C C12G C13G, 1.05.

As for U7C G9C C12G C13U, the “aptazyme ON/OFF ratio” value was 1.05. Then U7C G9C C12G C13A, with 1.04. Then U7C G9A U11A C12A, with 1.38; and U7C G9A U11A C12G, with 1.28. For U7C G9A U11A C12U the value was 1.19; for U7C G9C U10A U11G C13G, 1.07.

As to U7C G9C U10A U11G C13A, the “aptazyme ON/OFF ratio” value turned out to be 1.09. For the variant U7C G9C U10A U11G C13U, the “aptazyme ON/OFF ratio” value turned out to be 1.09. For U7C G9C U10C C12G C13U the value was 1.08. For U7C G9C U10C C12G C13A the value was 1.09; for U7C G9C U10C C12G C13G, 1.12. For U7C G9A U10C U11C C12U C13G the value was 1.04; for U7C G9A U10C U11C C12U C13U, 1.07. For the variant U7C G9A U10C U11C C12U C13A, the “aptazyme ON/OFF ratio” value was 1.04.

In the case of U7C G9A U10G U11A C12G, the “aptazyme ON/OFF ratio” value came to 1.21. Then U7C G9A U10G U11A C12U, with 1.05. For U7C G9A U10G U11A C12A the value was 1.32. For U7C G9A U10C U11G C12G C13A the value was 1.14; for U7C G9A U10C U11G C12G C13U, 1.09; for U7C G9A U10C U11G C12G C13G, 1.11. U7C G9C U10A U11A C12A C13G: the “aptazyme ON/OFF ratio” value came out at 1.08.

For U7C G9C U10A U11A C12A C13U, the “aptazyme ON/OFF ratio” value was 1.06. Then U7C G9C U10A U11A C12A C13A, with 1.09; and U7C G9C U10G U11A, with 1.09; and U7C G9C U10G U11C, with 1.05. U7C G9C U10G U11G: the “aptazyme ON/OFF ratio” value worked out at 1.11. Then U7C G9C U10G U11A C12A C13U, with 1.4. For U7C G9C U10G U11A C12A C13A the value was 1.31.

Turning to U7C G9C U10G U11A C12A C13G, the “aptazyme ON/OFF ratio” value was 1.09.

For the variant U7C G9C U10G C12A C13U, the “aptazyme ON/OFF ratio” value was 1.12. For U7C G9C U10G C12A C13G the value was 1.14; for U7C G9C U10G C12A C13A, 1.15; for U7C G9A U10G U11C C12U C13A, 1.2. For U7C G9A U10G U11C C12U C13G the value was 1.09; for U7C G9A U10G U11C C12U C13U, 1.21. For U7C G9A U10C U11C C12G C13U the value was 1.04; for U7C G9C U10C C12U C13G, 1.07; for U7C G9C U10C C12U C13U, 1.07. Take U7C G9C U10C C12U C13A: the “aptazyme ON/OFF ratio” value came to 1.04. For U7C G9C U10A U11A the value was 1.05; for U7C G9C U10A U11G, 1.09.

U7C G9C U10A U11C: the “aptazyme ON/OFF ratio” value came to 1.04.

As for U7C G9C U10C C12A C13U, the “aptazyme ON/OFF ratio” value worked out at 1.04. U7C G9C U10C C12A C13G: the “aptazyme ON/OFF ratio” value came to 1.06. For U7C G9C U10C C12A C13A the value was 1.06. Then U7C G9C U10A U11A C13G, with 1.05; and U7C G9C U10A U11A C13A, with 1.11; and U7C G9C U10A U11A C13U, with 1.05. Then U7C G9A U10G, with 1.42; and U7C G9A U10C U11G, with 1.42. Consider U7C G9A U11C C13U, for which the “aptazyme ON/OFF ratio” value is 1.06. Then U7C G9A U11C C13G, with 1.04. Then U7C G9A U11C C13A, with 1.07; and U7C G9A U11A C12G C13U, with 1.27. For U7C G9A U11A C12G C13A the value was 1.15.

For U7C G9A U11A C12G C13G, the “aptazyme ON/OFF ratio” value amounted to 1.19. For U7C G9C C12U C13A the value was 1.01; for U7C G9C C12U C13U, 1.02.
